Source: patent publication US20040176285A1, “Tip39 polypeptides” (priority 2001, published 2004)
Entries after “also recorded” stand apart in the source; their conditions may differ. Where a SMILES comes first, the peptide text is derived from it. Where no end group is shown, it is not given here.

How the values were obtained:
PTH1R [1] = target: T1, PTH1R (Homo sapiens, UniProt Q03431); assay: Radioreceptor binding assay with HKrk-B7 cells; design: expressed in transfected cells
T1 sequence (Q03431 27-593): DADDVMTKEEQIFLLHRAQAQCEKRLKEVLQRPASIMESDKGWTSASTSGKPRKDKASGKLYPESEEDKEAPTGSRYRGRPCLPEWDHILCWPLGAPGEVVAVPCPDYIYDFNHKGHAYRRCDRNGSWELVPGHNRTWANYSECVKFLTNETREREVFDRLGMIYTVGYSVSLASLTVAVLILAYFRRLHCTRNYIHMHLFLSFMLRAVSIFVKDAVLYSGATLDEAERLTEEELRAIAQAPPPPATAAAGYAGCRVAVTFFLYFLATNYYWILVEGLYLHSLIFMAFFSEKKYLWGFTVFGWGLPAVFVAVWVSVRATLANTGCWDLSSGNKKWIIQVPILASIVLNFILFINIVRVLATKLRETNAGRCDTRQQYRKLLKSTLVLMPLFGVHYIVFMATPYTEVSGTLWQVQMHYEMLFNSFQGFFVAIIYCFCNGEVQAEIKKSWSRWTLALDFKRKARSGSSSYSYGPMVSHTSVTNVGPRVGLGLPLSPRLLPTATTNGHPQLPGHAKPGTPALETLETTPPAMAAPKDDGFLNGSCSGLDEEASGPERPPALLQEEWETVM
Protocol: (§1) DMEM, Trypsin/EDTA, and penicillin G/streptomycin and horse serum were from Gibco/BRL, Life Technologies, Gaithersburg, Md. LLC-PK, expressing the recombinant human PTH1R (HKrk-B7 cells) and SaOS-2 cells expressing the wild-type PTH1R endogenously were cultured in DMEM supplemented with 10% heat-inactivated fetal bovine serum, 100 U/ml penicillin, 100 μg/ml streptomycin, as previously described (Gardella, T. J., et al., J. Biol. Chem. 271:19888-19893 (1996); Fukayama, S., et al., Endocrinology 134:1851-1858 (1994)); both cell lines were maintained in a humidified atmosphere containing 95% air and 5% CO2. After seeding, medium was replaced daily, until cells were used for radioligand binding or cAMP accumulation assays.
(§2) Na^125I (specific activity: 2,000 Ci/mmol) was purchased from DuPont/NEN, Boston, Mass. Fetal bovine serum, 3-isobutyl-1-methyl-xanthine (IBMX), and BSA were from Sigma, St. Louis, Mo., and trifluoroacetic acid (TFA) was from Pierce, Rockford, Ill. Radiolabeled rPTH(1-34) and PTHrP(1-36) were prepared by the chloramine-T method, followed by HPLC purification using a 30-50% ACN/0.1% TFA gradient over 30 minutes; radioreceptor assays were performed in 24-well plates as previously described (Gardella, T. J., et al., J. Biol. Chem. 271:19888-19893 (1996); Fukayama, S. et al., Endocrinology 134:1851-1858 (1994)). In brief, each well (final volume 500 μl) contained binding buffer (BB; 50 mM Tris-HCl (pH 7.7), 100 mM NaCl, 5 mM KCl, 2 mM CaCl2, 5% heat-inactivated horse serum, and 0.5% heat-inactivated fetal bovine serum), the ^125I-labeled PTH or PTHrP analog (100,000 to 200,000 cpm) was incubated in the absence or presence of increasing concentrations of unlabeled peptides. After 4 h at 16° C., buffer was completely removed, the cells were rinsed with cold BB and lysed with 1 M NaOH. The entire lysate was counted for γ-irradiation. Specific binding was determined after subtracting radioactivity bound in the presence of maximal concentrations of unlabeled competing peptide (10^−6 M). Agonist-dependent stimulation of cAMP accumulation by HKrk-B7 and SaOS-2 cells (48-well plates; stimulation at room temperature for 45 minutes) and the subsequent measurement of cAMP by radioimmunoassay was performed as previously described (Gardella, T. J., et al., J. Biol. Chem. 271:19888-19893 (1996); Bergwitz, C., et al., Endocrinology 139:723-732 (1998)). Data were analyzed and graphically illustrated using the graph-pad prism software package.
The binding properties of these peptides were evaluated in radioreceptor assays with HKrk-B7 cells, which express the PTH IR at high density (approximately […]) (Carter, P. H., et al., Endocrinology 140:4972-4981 (1999)), using either radiolabeled rPTH(1-34) or PTHrP(1-36).
The calculated IC50 values (mean±SE) are derived from at least three independent experiments.

PTH1R [2] = target: T1, PTH1R; assay: Ligand-stimulated cAMP accumulation in HKrk-B7 cells; type: cell-based; design: expressed in transfected cells
Protocol: as §1, §2
The values for EC50 and Vmax (mean±SE) are derived from at least three independent experiments.

endogenous PTH1R = target: T2, endogenous PTH1R (Homo sapiens, UniProt Q03431); assay: Ligand-stimulated cAMP accumulation in SaOS-2 cells; type: cell-based
T2 construct: SaOS-2 cells expressing the wild-type PTH1R endogenously; endogenous in cells; host or cells: SaOS-2 human osteosarcoma cells
T2 sequence (Q03431 27-593): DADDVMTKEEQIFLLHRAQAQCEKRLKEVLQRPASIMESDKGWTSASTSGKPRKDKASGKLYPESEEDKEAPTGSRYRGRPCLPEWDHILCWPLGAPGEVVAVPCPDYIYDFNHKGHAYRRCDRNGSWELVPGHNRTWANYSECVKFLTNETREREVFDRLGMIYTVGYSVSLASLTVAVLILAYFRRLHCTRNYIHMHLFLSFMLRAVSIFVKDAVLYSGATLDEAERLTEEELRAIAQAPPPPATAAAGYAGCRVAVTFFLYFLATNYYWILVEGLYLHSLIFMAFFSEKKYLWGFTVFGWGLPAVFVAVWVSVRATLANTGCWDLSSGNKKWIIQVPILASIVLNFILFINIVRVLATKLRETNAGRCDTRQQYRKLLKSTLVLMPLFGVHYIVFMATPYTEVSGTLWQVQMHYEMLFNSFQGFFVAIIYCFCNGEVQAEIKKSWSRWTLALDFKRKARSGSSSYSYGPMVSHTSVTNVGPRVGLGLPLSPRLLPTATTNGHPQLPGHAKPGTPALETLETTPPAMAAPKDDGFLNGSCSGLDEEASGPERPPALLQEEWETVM
Protocol: as §1
as §2, with “After 4 h at 16° C., buffer was completely removed, the cells were rinsed with cold BB and lysed with 1 M NaOH.” left out, “Agonist-dependent stimulation of cAMP accumulation by HKrk-B7 and SaOS-2 cells (48-well plates; stimulation at room temperature for 45 minutes) and the subsequent measurement of cAMP by radioimmunoassay was performed as previously described (Gardella, T. J., et al., J. Biol. Chem. 271:19888-19893 (1996); Bergwitz, C., et al., Endocrinology 139:723-732 (1998)).” left out, “package. […]” for “package.”

[3] = target: T3, human PTH/PTHrP receptor (PTH1R) (human, UniProt Q03431 27-593); assay: cell-based or functional assay
T3 sequence (looked up): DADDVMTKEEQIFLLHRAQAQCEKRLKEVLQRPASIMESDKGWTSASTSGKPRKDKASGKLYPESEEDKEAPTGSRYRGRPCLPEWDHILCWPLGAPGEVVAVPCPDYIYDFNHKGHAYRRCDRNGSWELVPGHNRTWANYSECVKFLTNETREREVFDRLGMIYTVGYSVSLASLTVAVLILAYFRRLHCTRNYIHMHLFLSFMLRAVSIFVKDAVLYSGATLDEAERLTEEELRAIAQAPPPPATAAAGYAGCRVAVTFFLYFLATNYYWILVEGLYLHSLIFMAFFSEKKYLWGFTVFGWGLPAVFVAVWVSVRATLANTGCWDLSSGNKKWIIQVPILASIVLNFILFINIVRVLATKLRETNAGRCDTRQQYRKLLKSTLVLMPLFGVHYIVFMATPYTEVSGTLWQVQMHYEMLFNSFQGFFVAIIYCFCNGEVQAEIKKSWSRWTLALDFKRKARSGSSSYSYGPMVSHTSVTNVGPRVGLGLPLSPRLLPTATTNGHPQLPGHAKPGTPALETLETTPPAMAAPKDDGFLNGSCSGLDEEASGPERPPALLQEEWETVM

[4] = target: T3, human PTH/PTHrP receptor (PTH1R); assay: radioreceptor competition on HKrk-B7 cells; tracer 125I-[Tyr36]PTHrP(1-36)amide
Protocol: (§3) Na¹²⁵I (specific activity: 2,000 Ci/mmol) was purchased from DuPont/NEN, Boston, Mass. Fetal bovine serum, 3-isobutyl-1-methyl-xanthine (IBMX), and BSA were from Sigma, St. Louis, Mo., and trifluoroacetic acid (TFA) was from Pierce, Rockford, Ill. […] After 4 h at 16° C., buffer was completely removed, the cells were rinsed with cold BB and lysed with 1 M NaOH. The entire lysate was counted for γ-irradiation. Specific binding was determined after subtracting radioactivity bound in the presence of maximal concentrations of unlabeled competing peptide (10⁻⁶ M). Agonist-dependent stimulation of cAMP accumulation by HKrk-B7 and SaOS-2 cells (48-well plates; stimulation at room temperature for 45 minutes) and the subsequent measurement of cAMP by radioimmunoassay was performed as previously described (Gardella, T. J., et al., J. Biol. Chem. 271:19888-19893 (1996); Bergwitz, C., et al., Endocrinology 139:723-732 (1998)). Data were analyzed and graphically illustrated using the graph-pad prism software package.

[5] = target: T3, human PTH/PTHrP receptor (PTH1R); assay: radioreceptor competition on HKrk-B7 cells; tracer 125I-rat [Nle8,21,Tyr34]PTH(1-34)amide
Protocol: as §3

[6] = maximal cAMP accumulation, mean±SE

TIP(19-39): TIP39 analog truncated at the amino-terminus, residues 19-39, bovine sequence (ALERRHWLNSYMHKLLVLDAP)
inhibition of radioligand binding to the PTH1R (in words) (PTH1R [1]; either radioligand): did not inhibit the binding of either radioligand; also recorded: no detectable binding
stimulation of cAMP accumulation at the PTH1R (in words) (PTH1R [2]; HKrk-B7 cells): lack of second messenger formation

TIP(23-39): TIP39 analog truncated at the amino-terminus, residues 23-39, bovine sequence (RHWLNSYMHKLLVLDAP)
inhibition of radioligand binding to the PTH1R (in words) (PTH1R [1]; either radioligand): did not inhibit the binding of either radioligand; also recorded: no detectable binding
increase in cAMP accumulation over basal (PTH1R [2]; HKrk-B7 cells, high molar concentrations): ~2 fold over basal

CC[C@H](C)[C@H](NC(=O)[C@H](CO)NC(=O)[C@H](CCCCN)NC(=O)CNC(=O)[C@H](CCCCN)NC(=O)[C@H](CC(=O)O)NC(=O)[C@H](Cc1c[nH]cn1)NC(=O)[C@H](CC(C)C)NC(=O)[C@H](CC(C)C)NC(=O)[C@H](CCC(N)=O)NC(=O)[C@H](Cc1c[nH]cn1)NC(=O)[C@H](CCC(=O)O)NC(=O)[C@H](CO)NC(=O)[C@@H](NC(=O)[C@H](C)N)C(C)C)C(=O)N[C@@H](CCC(N)=O)C(=O)N[C@@H](CC(=O)O)C(=O)N[C@@H](CC(C)C)C(=O)N[C@@H](CCCNC(=N)N)C(=O)N[C@@H](CCCNC(=N)N)C(=O)N[C@@H](CCCNC(=N)N)C(=O)N[C@@H](Cc1c[nH]cn1)C(=O)N[C@@H](Cc1c[nH]c2ccccc12)C(=O)N[C@@H](CC(C)C)C(=O)N[C@@H](CC(N)=O)C(=O)N[C@@H](CO)C(=O)N[C@@H](Cc1ccc(O)cc1)C(=O)N[C@@H](CCSC)C(=O)N[C@@H](Cc1c[nH]cn1)C(=O)N[C@@H](CCCCN)C(=O)N[C@@H](CC(C)C)C(=O)N[C@@H](CC(C)C)C(=O)N[C@H](C(=O)N[C@@H](CC(C)C)C(=O)N[C@@H](CC(=O)O)C(=O)N[C@@H](C)C(=O)N1CCC[C@H]1C(N)=O)C(C)C [PTHrP(1-20)/TIP(23-39)] (H-AVSEHQLLHDKGKSIQDLRRRHWLNSYMHKLLVLDAP-NH2)
Vmax (efficacy) of cAMP accumulation (endogenous PTH1R; SaOS-2 cells): 31±3 pmol/well
SaOS-2 Maxobs (endogenous PTH1R; [6]): 31 ± 3 pmol/48-well
binding affinity higher than that of PTHrP(1-36) (PTH1R [1]): 2- to 4 fold
binding affinity weaker than that of PTH(1-34) (PTH1R [1]): 3- to 4 fold
improvement in apparent binding affinity (IC50) relative to TIP(1-39) (PTH1R [1]; either radioligand): 8- to 19 fold
Vmax (efficacy) of cAMP accumulation (PTH1R [2]; HKrk-B7 cells): 39±8 pmol/well
stimulation of cAMP accumulation at the PTH1R (in words) (PTH1R [2]; HKrk-B7 cells): full and potent agonist
HKrk-B7 Maxobs (PTH1R [2]; [6]): 39 ± 8 pmol/48-well

H-AVSEHQLLHDKGKSIQDLRRRHWLNSYMHKLLVLDAP-NH2 (also called PTHrP/TIP chimera) [PTHrP(1-20)/TIP(23-39)]
EC50 of cAMP accumulation, HKrk-B7 cells [3]: 1.4 nM
EC50 of cAMP accumulation, SaOS-2 cells [3]: 0.38 nM
IC50 [4]: 11 nM
IC50 [5]: 31 nM

SVSEIQLMHNLGKHLNSMERVEWLRKKLQDVHNY (not fully specified (C-terminus)) [[Tyr^34] human PTH(1-34)amide]
EC50 of cAMP accumulation, SaOS-2 cells [3]: 0.3 nM
